Experimental data taken from patent US20240141045A1.

Target: PD-1 Fc fusion protein (UniProt Q15116)
Experiment: SPR (Biacore 3000), recombinant PD-1 Fc immobilised on CM5 chip, fusion protein injected

PD-1 Fc fusion protein, sequence (Q15116 25-167 limits assumed): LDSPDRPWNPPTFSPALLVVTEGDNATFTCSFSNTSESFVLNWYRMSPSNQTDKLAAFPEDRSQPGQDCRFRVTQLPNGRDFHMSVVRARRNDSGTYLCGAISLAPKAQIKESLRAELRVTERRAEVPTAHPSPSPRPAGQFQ

Kd: 0.563 nM
B1: Anti-PD1 (VH7-VL6) scFv-Fc-ADA2 (Fc fusion, part only; not given: scFv linker and Fc, not shown: a dimerising Fc or GST)
scFv (part 1 of 2), part: QVQLVQSGVEVKKPGASVKVSCKASGYTFTNYYMYWVRQAPGQGLEWMGGINPSNGGTNFNEKFKNRVTLTTDSSTTTAYMELKSLQFDDTAVYYCARRDYRFDMGFDYWGQGTTVTVSSEIVLTQSPATLSLSPGERATLSCRASKGVSTSGYSYLHWYQQKPGQAPRLLIYLASYLESGVPARFSGSGSGTDFTLTISSLEPEDFAVYYCQHSRDLPLTFGGGTKVEIK
scFv (part 2 of 2), part: GGGGSGGGGSIDETRAHLLLKEKMMRLGGRLVLNTKEELANERLMTLKIAEMKEAMRTLIFPPSMHFFQAKHLIERSQVFNILRMMPKGAALHLHDIGIVTMDWLVRNVTYRPHCHICFTPRGIMQFRFAHPTPRPSEKCSKWILLEDYRKRVQNVTEFDDSLLRNFTLVTQHPEVIYTNQNVVWSKFETIFFTISGLIHYAPVFRDYVFRSMQEFYEDNVLYMEIRARLLPVYELSGEHHDEEWSVKTYQEVAQKFVETHPEFIGIKIIYSDHRSKDVAVIAESIRMAMGLRIKFPTVVAGFDLVGHEDTGHSLHDYKEALMIPAKDGVKLPYFFHAGETDWQGTSIDRNILDALMLNTTRIGHGFALSKHPAVRTYSWKKDIPIEVCPISNQVLKLVSDLRNHPVATLMATGHPMVISSDDPAMFGAKGLSYDFYEVFMGIGGMKADLRTLKQLAMNSIKYSTLLESEKNTFMEIWKKRWDKFIADVATK
